Results from patent US20240225985A1, “BRIGHTENING COMPOSITIONS AND METHODS OF USE” (Alastin Skincare, Inc., priority 2021, published 2024).
Entries after “also recorded” stand apart in the source; their conditions may differ.

Key:
endothelial cells = assay: Gene expression of PMEL, tyrosinase genes, MC1/4R, EDNRB, MITF, ERK1/2, JNK, AKT1; assay type: cell-based; settings: after treatment of endothelial cells
Description: The methods similar to Examples 3-4 were used to measure expression of PMEL, tyrosinase genes, MC1/4R, EDNRB, MITF, ERK1/2, JNK, and ANKT1.
FIGS. 10A-10D illustrates the expression of PMEL (FIG. 10A), Tyrosinase genes (FIG. 10B), MC1/4R (FIG. 10C), and EDNRB (FIG. 10D) after treatment of endothelial cells with lactoferrin (Lacto), peptide derived from lactoferrin (TCV), hexapeptide-12 (Hex12), tripeptide-1 and hexapeptide-12 (TriHex), hexapeptide-11 (Hex11), tranexamic acid (Tran acid) octapeptide (Octa), phosphatidylserine (phos), Cannabidiol (CBD), and all (total).
MITF is regulated by phosphorylation. Specifically, the MAPK and Akt pathways are known to phosphorylate MITF at certain sites. FIGS. 12A-12C illustrate the expression of ERK1/2 (MAPK3/MAPK1) (FIG. 12A), JNK (FIG. 12B), AKT1 (FIG. 12C) after treatment of endothelial cells with lactoferrin (Lacto), peptide derived from lactoferrin (TCV), hexapeptide-12 (Hex12), tripeptide-1 and hexapeptide-12 (TriHex), hexapeptide-11 (Hex11), octapeptide (Octa), phosphatidylserine (phos), Cannabidiol (CBD), and all (total).

melanocytes [1] = assay: In vitro melanocyte comparative analysis via absorbance readings (melanin production); assay type: cell-based; settings: for Absorbance 405 nm / Absorbance 490 nm / Absorbance 492 nm: 4 days, control = 0.0 row
Description: Melanocytes were cultured in 6-well plates containing growth media. Once confluent, 2 concentrations of each of the 10 compounds were added to the cells in triplicate wells for 4 days. There were a total of eleven 6-well plates, one for each compound treatment and one for the vehicle control. Absorbance readings were taken on the lysates prepared for each well of the 6-well plates, normalizing for cells counts. The model was initially tested for accuracy and validated using hexapeptide-12 in view of strong gene expression results with melanocyte cell line in the first study—confirmation of decreased stimulation was obtained. Additional validation was carried out using MSH addition to media to confirm increased stimulation of melanin production. The following compounds used in this study are seen in Table 9.

melanocytes [2] = assay: Gene expression study (RNA sequencing) in PGE2-induced melanocytes; assay type: cell-based, human; settings: melanocytes induced with 10 uM PGE2; 24 hours of compound exposure
Description: Four cell types associated with pigmentation pathways—melanocytes, keratinocytes, fibroblasts and endothelial (HUVEC) cells—were analyzed for gene expression.
To simulate the UV stimulatory pigmentation pathway process, melanocytes were pre-treated with PGE2, a normal direct consequence of UV light exposure usually emanating from exposed keratinocytes. After the 48 hour attachment culture, these melanocytes were induced with 10 uM PGE2 in melanocyte media for 24 hrs. The four primary human adult dermal cell lines were cultured and plated in well plates in triplicate and then treated with 11 different compound treatments (plus DMSO control). After 48 hours of attachment culture, the remaining fibroblasts, HUVECs and keratinocytes were treated with the test compounds listed in Table 8.
After 24 hours of compound exposure, RNA lysate preparation was carried out and samples were shipped to MedGenome for RNA extraction, library construction and sequencing to 25M paired end 100 bp reads per sample. Library prep and sequencing was completed at MedGenome.

[3] = tested on: hTERT-immortalized dermal melanocytes; assay: Melanocyte assay, daily inspection of cell morphology; assay type: cell-based, human; settings: both concentrations of Table 11; five-day dosing period
Description: Once the melanocytes were 100% confluent in 6-well plates, the melanocyte growth media was removed and the melanocytes were treated with media containing the above compounds; duplicate wells for each compound/concentration listed above. The duplicate vehicle control wells were fed melanocyte growth media only or melanocyte growth media with DMSO (10 uL per 10 mL melanocyte growth media).
The cells were fed the appropriate media for the next 5 days. Each day, the cells were inspected for morphology.

[4] = higher concentration (Lactoferrin 1000, HEX-11 200, Phosphatidylserine 500, Silymarin 20, Sesamol 100, Tranexamic Acid 1000, HEX-12 4.9, ug/mL or ug/uL; Phytoene/Phytofluene 5.00%)
[5] = lower concentration (Lactoferrin 500, HEX-11 100, Phosphatidylserine 250, Silymarin 10, Sesamol 50, Tranexamic Acid 500, HEX-12 2.9, ug/mL or ug/uL; Phytoene/Phytofluene 2.50%)

B1: Lactoferrin: 80 kDa iron binding glycoprotein of the transferrin family (protein)
chain: APRKNVRWCTISQPEWFKCRRWQWRMKKLGAPSITCVRRAFALECIRAIAEKKADAVTLDGGMVFEACRDPYKLRPVAAEIYGTKESPQTHYYAVAVVKKGSNFQLDQLQGRKSCHTGLGRSAGWIIPMGILRPYLSWTESLEPLQGAVAKFFSASCVPCIDRQAYPNLCQLCKGEGENQCACSSREPYFGYSGAFKCLQDGAGDVAFVKETTVFENLPEKADRDQYELLCLNNSRAPVDAFKECHLAQVPSHAVVARSVDGKEDLIWKLLSKAQEKFGKNKSRSFQLFGSPPGQRDLLFKDSALGFLRIPSKVDSALYLGSRYLTTLKNLRETAEEVKARYTRVVWCAVGPEEQKKCQQWSQQSGQNVTCATASTTDDCIVLVLKGEADALNLDGGYIYTAGKCGLVPVLAENRKSSKHSSLDCVLRPTEGYLAVAVVKKANEGLTWNSLKDKKSCHTAVDRTAGWNIPMGLIVNQTGSCAFDEFFSQSCAPGADPKSRLCALCAGDDQGLDKCVPNSKEKYYGYTGAFRCLAEDVGDVAFVKNDTVWENTNGESTADWAKNLNREDFRLLCLDGTRKPVTEAQSCHLAVAPNHAVVSRSDRAAHVKQVLLHQQALFGKNGKNCPDKFCLFKSETKNLLFNDNTECLAKLGGRPTYEEYLGTEYVTAIANLKKCSTSPLLEACAFLTR
melanogenic activity (expression of PMEL, tyrosinase genes, MC1/4R, EDNRB, kinases) (endothelial cells): robust melanogenic activity; also recorded: significant effects on such melanogenic activity | Absorbance 405 nm (melanocytes [1]; [4]): 0.519 | Absorbance 490 nm (melanocytes [1]; [4]): 0.312 | Absorbance 492 nm (melanocytes [1]; [4]): 0.226 | Absorbance 405 nm (melanocytes [1]; [5]): 0.509 | Absorbance 490 nm (melanocytes [1]; [5]): 0.334 | Absorbance 492 nm (melanocytes [1]; [5]): 0.217 | Regulation of melanogenesis (decreased absorption denoting decreased melanin formation) (melanocytes [1]; melanocytes, summary of Table 10): Regulation of melanogenesis was observed | melanogenic gene activity in melanocytes (melanocytes [2]): particularly dominant in melanogenic activity; also recorded: significant effects on melanogenesis activity | melanocyte morphology / survival on daily inspection [3]: developed a circular morphology rather the normal webbed morphology 24 hour post-initial dosing; also recorded: at 48 hours post-initial dosing, the melanocytes returned to normal morphology
